Data from the nanobody polyreactivity screen of Harvey et al. (2022).

Test: yeast display, Sf9 membrane polyspecificity reagent, FACS + sequencing; frameworks hold sequencing errors
Procedure, shortened: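 In a synthetic yeast display library (Saccharomyces cerevisiae BJ5465), nanobody expression was induced with galactose for 36–48 hours. FACS gates were set low and high (top ~1%) using anti-HA fluorescence for expression and streptavidin fluorescence for binding of the Sf9 membrane reagent. Each polyreactivity label is drawn from the gate of origin.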

Sequence | polyreactivity (PSR sort gate)
QVQLVESGGGLVQAGGSLRLSCAASGFFFDEYAMGWYRLAPGKERELVAAIDVGGSTYYADSVKGRFTISRDNAKNTVYLQMNSLKPEDTAVYYCARDAFSVSDFSYASIEYDYWGQGTQVTVSS | low polyreactivity
QVQLVESGGGLVQAGGSLRLSCAASGSIFGSYAMGWYRQATGNERELVAAIRSSASTYYADSVKGRFTISRDNAKNTVYLQMYSLKPEDTAVYYCAAKFTSYGRSRYYSWGQGTQVTVSS | high polyreactivity
QVQIVESGGGIVQAGGSLRLSSAASGSTFSFYVMGWYRHAPGKEREWVAAISWSSVGTYYADSVKGRFTISRDNAKNTVYLQMNSLKPDDTAVYYCAAERYRRVAKHGYWGQGTQVTVSS | high polyreactivity
QVQLVESGGGLVQAGGSLRLSCAASGSTFWKYVMGWYRQAPGKERELVAAIDTGASTNYADSVKGRFTISRDNAKYTVYLQMNSLKPEDTAVYFCNAELWYGPDELTGDYWGQGTQVTVSS | low polyreactivity
QVQLVESGGGLVQAGGSLRLSCAASGITFVYYTMGWYRQAPGKERELVAAISSTGGSTYYADSVKGRFTISRDNAKNTVYLQMNSLKPEDTAVYYCAADARTFGGYGYWGQGTQVTVAS | high polyreactivity
QVQLVESGGGLVQAGGSLRLSCAATGFRFVHTAIGWYRKAPGKERELVAAIRSRGGSTYYADSVKGRFTISRDNAKNTVYLQMKSLKPEDTAVYYCAADGAVDSSSRKFGYWGQGTQVNVSS | low polyreactivity
QVQLVESGGGLVQSGGSLRLSCAASGSTFVSNAMGWYRQAPGKERELFAAINGSGGITYYADSVKGRFTISRDNAKNTVYLQMNSLKPEDTAVYYCAAEYDGPYTWVDYYYHYGYWGQGTEVTVSS | low polyreactivity
QVQLVESGGGLVQAGGSLRLSCAASGFTFFPYAMGWYRQAPGTERELVAAITETGGRTYYADSVKGRFTISRDNAKYTVYLQMNSLKPEDTAVYYCAKRGLHGYFVRGERGYWGQGTQVTVSS | low polyreactivity
QVQLVESGGGLVQSGGSLRLSCAASGSINVYYAMGLYRQEPGKERDLVAAISASGGSTYYADSVKGRFTISRDNAKNTFYLQMKSLKPEDTAVYYCAADTFYSYYDMDYWGQGTQVTVSS | low polyreactivity
QVQLVESGGGLVQAGGSLRLSCAASGSTFYGYAMGWYRQAPGKERELVAAITRSGGSTYYADSVKGRFTISRDNAKNTVYLQMNSLKPEDTAVYYCAAEFRYSRVYGYNYWGQGSQVTVSS | high polyreactivity
QVQLVESGGGLDQAGGSLRLSCDASGRIFGYYAMGWYRQAPGKERELVAAITWTGGGTYYADSVKGRFTISRDNAKNTVYIQMNSLKPEDTAVYYCAADPDSGQFPFDYWGQGTQVTVSS | low polyreactivity
QVQLVESGGGLVQAGGSLRLSCAASGFIFTRYAMGWYRQAPGKERELVAVITSSGGTYYADSVKGRFTISRDNAKNSVYLQMNSLKPEDTAVYYCNADFYRVAYLRRYSHFDYWGQGTQVTVSS | high polyreactivity
QVQLVESGGGLVQAGGSLRLRCAASGRTFAVYAMGWYRQAPGKERELVAAITLGASRSYYADSVKGRFTISRDNAKNTVYLHMNSLKPEDTAVYYCNAVGRRNVVSSLNDYWGQGTQVTVSS | low polyreactivity
QVQLVESGVGLVQAGGSLRISCAASGFIFVTNVMGWYRQAPGKEREFVAAITARGGTTYYADSVKGRFTISRDNAKNTVYLQMNRLKPEDTAVYYCAAGYGVIKSLSHFYYWGQGTQVTVSS | low polyreactivity
QVQLVESGGGLVQAGGSLRLSCAASGSTFDGNAMGWNRQAPGKERELVAAITRAGRTSYADSVKGRFTISRDNAKNTVYLQMNCLKPEDTAVFYCAKGGYDYWGQGTQVTVSS | low polyreactivity
QVQLVESGGGLVQAGGSLRLSFAASGFTFGWYAMGWYRQAPGKGRELVAAISGGDSRTYADSVKGRFTISRDNAKNTVYLQMNSLKPADTAVYYCNAENRQLYWWTVARSHYGYWGQGTQVTVSS | low polyreactivity
QVLLVESGGALVQAGGSLRLSCAASGYIFRFYTLRGYRQAPGKERELVAAISAGGSTNSADSVKGRFTISRDNAKNTVYLQMNSLKPEDTAVEYCAARYYSRYYWGQGTQVTVSS | low polyreactivity
